Holding throughout (test): EMSA
Background: A gel shift assay detects complexes by their altered migration in electrophoresis.

The subject of data set [1] is Orc1 BAH Lid swap (Saccharomyces cerevisiae). To be noted: 10 mM Tris pH 7.5, 50 mM NaCl, 2.5% glycerol, 1 mM DTT, room temperature 30 min, 25 or 50 nM nucleosome, native PAGE 0.2x TBE.
Data set [2] relates to T1, Orc1 BAH WT (Saccharomyces cerevisiae).
T1 sequence: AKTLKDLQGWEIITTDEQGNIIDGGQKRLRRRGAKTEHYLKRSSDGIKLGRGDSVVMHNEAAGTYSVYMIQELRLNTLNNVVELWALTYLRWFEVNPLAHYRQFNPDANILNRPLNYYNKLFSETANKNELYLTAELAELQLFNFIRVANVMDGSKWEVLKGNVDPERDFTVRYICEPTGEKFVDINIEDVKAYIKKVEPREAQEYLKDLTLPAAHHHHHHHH
To be noted: apparent Kd, 10 mM Tris pH 7.5, 50 mM NaCl, 2.5% glycerol, 1 mM DTT, room temperature 30 min, 25 or 50 nM nucleosome, native PAGE 0.2x TBE.

Data set [3] deals with Sir3 BAH D205N (Saccharomyces cerevisiae). To be noted: apparent Kd, 10 mM Tris pH 7.5, 50 mM NaCl, 2.5% glycerol, 1 mM DTT, room temperature 30 min, 25 or 50 nM nucleosome, native PAGE 0.2x TBE.
Data set [4] deals with Sir3 BAH D205Q (Saccharomyces cerevisiae). The note with it: apparent Kd, 10 mM Tris pH 7.5, 50 mM NaCl, 2.5% glycerol, 1 mM DTT, room temperature 30 min, 25 or 50 nM nucleosome, native PAGE 0.2x TBE.
Data set [5] concerns Sir3 BAH Lid D205Q (Saccharomyces cerevisiae). The note with it: apparent Kd, 10 mM Tris pH 7.5, 50 mM NaCl, 2.5% glycerol, 1 mM DTT, room temperature 30 min, 25 or 50 nM nucleosome, native PAGE 0.2x TBE.
Data set [6] relates to Orc1 BAH A2P (Saccharomyces cerevisiae). To be noted: 10 mM Tris pH 7.5, 50 mM NaCl, 2.5% glycerol, 1 mM DTT, room temperature 30 min; 25 or 50 nM nucleosome; native PAGE 0.2x TBE.
The test system of data set [7] is Orc1 BAH E95K (Saccharomyces cerevisiae). The note with it: apparent Kd; 10 mM Tris pH 7.5, 50 mM NaCl, 2.5% glycerol, 1 mM DTT, room temperature 30 min; 25 or 50 nM nucleosome; native PAGE 0.2x TBE.
In data set [8] the test system is Orc1 BAH L79I (Saccharomyces cerevisiae). The note with it: 10 mM Tris pH 7.5, 50 mM NaCl, 2.5% glycerol, 1 mM DTT, room temperature 30 min; 25 or 50 nM nucleosome; native PAGE 0.2x TBE.
The subject of data set [9] is Orc1 BAH Q205D (Saccharomyces cerevisiae). The note with it: apparent Kd; 10 mM Tris pH 7.5, 50 mM NaCl, 2.5% glycerol, 1 mM DTT, room temperature 30 min; 25 or 50 nM nucleosome; native PAGE 0.2x TBE.
For data set [10], the system named is Orc1 BAH R202E (Saccharomyces cerevisiae). To be noted: 10 mM Tris pH 7.5, 50 mM NaCl, 2.5% glycerol, 1 mM DTT, room temperature 30 min; 25 or 50 nM nucleosome; native PAGE 0.2x TBE.
Setting [11] is: histone H4 K16ac (genetically encoded), DNA unmodified.

For H4K16ac nucleosome (147 bp 601), the Kd in data set [1] (apparent Kd, histone H4 K16ac (genetically encoded), DNA unmodified) was 3700 nM; in [2] (setting [11]), 1500 nM; in data set [3] (setting [11]), 810 nM; in data set [4] (setting [11]), 1200 nM; in [5] (setting [11]), 1700 nM.

With WT nucleosome (147 bp 601, unmodified), the Kd in data set [6] worked out at 1900 nM; in data set [7], 4400 nM; in [8], 400 nM; in data set [1], 700 nM; in data set [1] (apparent Kd, comparison set with H4K16ac) it was 600 nM; in [9], 5100 nM. For the same substance, the Kd in data set [2] is 1300 nM; in data set [2] (reference set for mutants) it was 1100 nM; in data set [3] it was 220 nM; in data set [4] it was 300 nM; in data set [5], 1000 nM. Besides, the binding signal (fold decrease in affinity vs Orc1 WT) in data set [10] came out at 4.9.

Take H4K16Q nucleosome (147 bp 601): in data set [1] (histone H4 K16Q (acetyl mimic), DNA unmodified), the Kd was found to be 1400 nM.

The values above are taken from paper PMC6602975.
